Our source for the stoichiometry N, stoichiometry N (M per SNT (2:2 hetero-tetramer)) and inhibition of in vitro DNA methylation by M.EcoR124INT (EcoRI protection assay; 50 nM MTase, 50 nM ocr dimer incubated with the MTase before DNA, 37 °C, 10 mM MgCl2) values is paper PMC2877798.

The target in test [1] is SNT, residues 1–215 of the HsdS (specificity) subunit of EcoR124I (UniProt P10485). Briefly: AUC; sedimentation velocity of SNT alone at 25 μM; 30,000 rpm, 10 °C, buffer A (10 mM Tris–HCl, pH 8.0, 100 mM NaCl, 1 mM Na2EDTA), 280 nm; c(s)/c(M) analysis with SEDFIT.
The target is the same in test [2]. The test is described as follows: AUC; sedimentation equilibrium of reconstituted M.EcoR124INT at 2.5 to 8.8 μM; 6500 rpm and 8500 rpm, 276 nm, global fit to a single ideal species model.
For test [3] the target is unchanged. The test is described as follows: AUC; sedimentation velocity of reconstituted M.EcoR124INT at 2.6 μM; 30,000 rpm, 10 °C, buffer A, 280 nm; c(s)/c(M) analysis with SEDFIT.
In test [4] the target is M.EcoR124INT methyltransferase (hetero-tetramer of two SNT and two M subunits) (UniProt P10485).

“SNT, residues 1–215 of the HsdS (specificity) subunit of EcoR124I (from UniProt P10485 1-215) (domain or fragment)” had a stoichiometry N in test [1] of 2.

B1: M subunit (HsdM) of EcoR124I (natural protein)
chain: MKMTSIQQRAELHRQIWQIANDVRGSVDGWDFKQYVLGALFYRFISENFSSYIEAGDDSICYAKLDDSVITDDIKDDAIKTKGYFIYPSQLFCNVAAKANTNDRLNADLNSIFVAIESSAYGYPSEADIKGLFADFDTTSNRLGNTVKDKNARLAAVLKGVEGLKLGDFNEHQIDLFGDAYEFLISNYAANAGKSGGEFFTPQHVSKLIAQLAMHGQTHVNKIYDPAAGSGSLLLQAKKQFDNHIIEEGFFGQEINHTTYNLARMNMFLHNINYDKFDIKLGNTLTEPHFRDEKPFDAIVSNPPYSVKWIGSDDPTLINDERFAPAGVLAPKSKADFAFVLHALNYLSAKGRAAIVCFPGIFYRGGAEQKIRQYLVDNNYVETVISLAPNLFFGTTIAVNILVLSKHKTDTNVQFIDASELFKKETNNNILTDAHIEQIMQVFASKEDVAHLAKSVAFETVVANDYNLSVSSYVEAKDNREIIDIAELNAELKTTVSKIDQLRKDIDAIVAEIEGCEVQK
In the case of B1, the stoichiometry N (M per SNT (2:2 hetero-tetramer)) in test [2] and in test [3] was 1 each time.

B2: ocr (“overcome classical restriction”) protein (natural protein)
chain: MAMSNMTYNNVFDHAYEMLKENIRYDDIRDTDDLHDAIHMAADNAVPHYYADIFSVMASEGIDLEFEDSGLMPDTKDVIRILQARIYEQLTIDLWEDAEDLLNEYLEEVEEYEEDEE
In turn, B2 returned an inhibition of in vitro DNA methylation by M.EcoR124INT (EcoRI protection assay; 50 nM MTase, 50 nM ocr dimer incubated with the MTase before DNA, 37 °C, 10 mM MgCl2) in test [4] of 50%.
